Assays:
[1] = biological target: Human P-selectin (CD62P) on human platelets in whole blood (human) (UniProt P16109); assay: flow cytometry, human whole blood, platelets activated with 200 uM TRAP
[2] = biological target: Human P-selectin (CD62P) on human platelets in whole blood (human) (UniProt P16109); assay: flow cytometry, human whole blood, platelets activated with 2.5 uM ADP
[3] = biological target: Human P-selectin (CD62P) on human platelets in whole blood (human) (UniProt P16109); assay: flow cytometry, human whole blood, non-activated platelets

Sequence of UniProt P16109 (P16109 42-830): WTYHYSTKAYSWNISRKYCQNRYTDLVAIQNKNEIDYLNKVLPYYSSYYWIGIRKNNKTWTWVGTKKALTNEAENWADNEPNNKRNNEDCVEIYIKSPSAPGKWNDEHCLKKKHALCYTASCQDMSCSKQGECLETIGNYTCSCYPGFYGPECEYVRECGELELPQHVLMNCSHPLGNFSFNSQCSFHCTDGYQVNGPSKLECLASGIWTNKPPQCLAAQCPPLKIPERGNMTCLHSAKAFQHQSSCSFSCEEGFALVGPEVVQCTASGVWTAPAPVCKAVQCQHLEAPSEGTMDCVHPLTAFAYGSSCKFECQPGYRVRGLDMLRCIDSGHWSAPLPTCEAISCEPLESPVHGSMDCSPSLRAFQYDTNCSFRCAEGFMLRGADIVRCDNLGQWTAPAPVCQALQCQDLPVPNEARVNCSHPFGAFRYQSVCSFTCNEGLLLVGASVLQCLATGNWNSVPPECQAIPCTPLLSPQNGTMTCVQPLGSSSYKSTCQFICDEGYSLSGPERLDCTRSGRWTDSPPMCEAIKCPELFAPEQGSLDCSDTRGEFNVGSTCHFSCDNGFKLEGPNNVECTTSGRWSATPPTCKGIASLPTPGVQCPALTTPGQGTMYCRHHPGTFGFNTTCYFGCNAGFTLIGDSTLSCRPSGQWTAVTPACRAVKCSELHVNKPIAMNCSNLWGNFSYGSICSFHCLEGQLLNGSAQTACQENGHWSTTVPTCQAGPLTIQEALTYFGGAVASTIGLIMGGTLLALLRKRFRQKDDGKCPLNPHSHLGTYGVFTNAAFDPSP

- positivity (% of platelets) [1]: 97.8%
- positivity (% of platelets) [2]: 73.4%
- positivity (% of platelets) [3]: 0.4%
Substance: PC5-labeled antihuman P-selectin (CD62P, AK-4 clone) (antibody)

Reference: patent US20120183475A1
